Source: PMC6488192 (2019)

Columns and labels:
Details in all cases: parent: 1; read off a plot
GAP1, endogenous [1] = assay: IgG pulldown of TAP-tagged REH2, western blot quantification
[2] = target: RNA Editing Helicase 2 (REH2), endogenous (UniProt Q581T1); assay: IgG pulldown of TAP-tagged H2F1, western blot quantification
[3] = target: REH2-Associated Factor 1 (^H2F1), endogenous (UniProt Q585P3); assay: as above
GAP1, endogenous [4] = assay: as above
REL1 ligase, endogenous = REL1 ligase, endogenous (UniProt P86927); assay: IgG pulldown of TAP-tagged H2F1, self-adenylation reaction quantification

Sequence of ^H2F1 wild type with TAP tag (from UniProt Q585P3) Z1 R/K>A (Q585P3 23-524, change not shown): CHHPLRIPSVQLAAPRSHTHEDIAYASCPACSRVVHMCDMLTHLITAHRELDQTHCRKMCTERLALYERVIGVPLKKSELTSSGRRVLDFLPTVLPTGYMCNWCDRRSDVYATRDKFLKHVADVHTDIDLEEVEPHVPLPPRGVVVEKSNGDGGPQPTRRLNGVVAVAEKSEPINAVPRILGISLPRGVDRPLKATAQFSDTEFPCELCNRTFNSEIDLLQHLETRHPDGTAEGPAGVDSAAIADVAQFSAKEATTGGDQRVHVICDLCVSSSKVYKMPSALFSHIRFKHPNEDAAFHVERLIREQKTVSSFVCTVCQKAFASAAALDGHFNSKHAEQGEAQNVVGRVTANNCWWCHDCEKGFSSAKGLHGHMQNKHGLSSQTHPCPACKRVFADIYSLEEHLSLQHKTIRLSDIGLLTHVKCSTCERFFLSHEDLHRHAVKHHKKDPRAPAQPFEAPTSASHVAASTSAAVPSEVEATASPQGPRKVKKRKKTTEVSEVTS
Sequence of ^H2F1 wild type with TAP tag (from UniProt Q585P3) Z3 R/K>A (Q585P3 23-524, change not shown): as above
Sequence of REH2-Associated Factor 1 (^H2F1), endogenous (Q585P3 23-524): as the sequence (Q585P3 23-524, change not shown) above
Sequence of ^H2F1 wild type with TAP tag (from UniProt Q585P3) Z2 R/K>A (Q585P3 23-524, change not shown): as above
Sequence of ^H2F1 wild type with TAP tag (from UniProt Q585P3) Z5 R/K>A (Q585P3 23-524, change not shown): as above

Substance: RNA Editing Helicase 2 (REH2) wild type with TAP tag (from UniProt Q581T1) R1979A
- ratio to parent (GAP1, endogenous [1]): 1

Substance: ^H2F1 wild type with TAP tag (from UniProt Q585P3) Z1 R/K>A
- ratio to parent [2]: 0.75
- ratio to parent [3]: 0.87
- ratio to parent (GAP1, endogenous [4]): 0.85
- ratio to parent (REL1 ligase, endogenous): 0.72

Substance: ^H2F1 wild type with TAP tag (from UniProt Q585P3) Z3 R/K>A
- ratio to parent [2]: 0.85
- ratio to parent [3]: 1.2
- ratio to parent (GAP1, endogenous [4]): 1
- ratio to parent (REL1 ligase, endogenous): 0.62

Substance: RNA Editing Helicase 2 (REH2) wild type with TAP tag (from UniProt Q581T1) R2023A
- ratio to parent (GAP1, endogenous [1]): 0.66

Substance: ^H2F1 wild type with TAP tag (from UniProt Q585P3) Z5 R/K>A
- ratio to parent [2]: 0.97
- ratio to parent [3]: 1
- ratio to parent (GAP1, endogenous [4]): 0.99
- ratio to parent (REL1 ligase, endogenous): 0.77

Substance: RNA Editing Helicase 2 (REH2) wild type with TAP tag (from UniProt Q581T1) K1078A; A1086D
- ratio to parent (GAP1, endogenous [1]): 0.17

Substance: ^H2F1 wild type with TAP tag (from UniProt Q585P3) Z2 R/K>A
- ratio to parent [2]: 0.78
- ratio to parent [3]: 0.83
- ratio to parent (GAP1, endogenous [4]): 0.95
- ratio to parent (REL1 ligase, endogenous): 0.83

Substance: RNA Editing Helicase 2 (REH2) wild type with TAP tag (from UniProt Q581T1) H1998E
- ratio to parent (GAP1, endogenous [1]): 0.52
